Assay results reported in patent US20200340031A1 (YALE UNIVERSITY, published 2020).

How the values were obtained:
[1] = target: T1, Recombinant human renalase-1 expressed and secreted by pCDNA3-renalase-1-transfected 293T cells (human, UniProt Q5VYX0 18-342, limits assumed); experiment: Western blot; lane 293 s/n taken as supernatant of renalase-expressing 293 cells, the text does not explain the lane
T1 construct: whole renalase-1 entry named; Present in cell culture supernatant; also called mammalian-expressed recombinant human renalase
T1 sequence (Q5VYX0 18-342 limits assumed): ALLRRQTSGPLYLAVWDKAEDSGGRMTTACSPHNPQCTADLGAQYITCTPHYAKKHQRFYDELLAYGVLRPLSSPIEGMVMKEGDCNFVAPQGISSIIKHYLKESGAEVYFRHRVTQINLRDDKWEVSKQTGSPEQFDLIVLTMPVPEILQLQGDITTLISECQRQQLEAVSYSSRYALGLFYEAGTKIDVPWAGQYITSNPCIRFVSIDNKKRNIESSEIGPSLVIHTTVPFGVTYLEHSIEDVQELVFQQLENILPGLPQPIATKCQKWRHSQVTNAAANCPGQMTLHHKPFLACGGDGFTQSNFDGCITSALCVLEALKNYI

[2] = target: T1, Recombinant human renalase-1 expressed …; experiment: Immunoprecipitation from 293T supernatant with Protein G Sepharose, Western blot with biotinylated Ren 28-4
Method: All samples were incubated for 2 hours at 4° C. on a shaker. Immunoprecipitates were then washed 3 times with 1 mL RIPA buffer. 50 ul SDS-PAGE sample buffer (Fermentas) was added directly to Protein G-antibody immunoprecipitates and samples were heated to 95° C. for 5 minutes before running on SDS-PAGE. Actigel-antibody immunoprecipitates were washed a further 2 times in PBS prior to addition of 50 ul 0.1 M Glycine, pH 2.5. Samples were then agitated at room temperature for 10 minutes. Eluted proteins were recovered after centrifugation and resolved by SDS-PAGE. In all experiments 20 μL immunoprecipitate input material and 0.5 ng recombinant renalase positive control (RV11) were also loaded onto the gel.
In the example where a Protein G-mediated immunoprecipitation was used the western primary antibody was biotinylated-Ren 28-4 followed with a neutravidin-HRP secondary probe. In all cases where no immunoprecipitating antibody was added, no renalase was detected on the Western blot. All of the 1D and 1F antibodies (monoclonal and polyclonal) were able to immunoprecipitate bacterially- or mammalian-expressed recombinant human renalase.

[3] = target: T2, RPC2 reference standard peptide; experiment: standard curve in the sandwich ELISA with m42-RNLS capture and electro-chemiluminescence detection
T2 construct: Synthetic: m42 peptide antigen linked to the m28 peptide antigen
T2 sequence (peptide, as listed by the source): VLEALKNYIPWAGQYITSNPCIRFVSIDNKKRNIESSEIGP
Method: (§1) In this example, human plasma samples were pretreated as follows: To 40 μL of plasma, 20 μL of 1N Citric acid was added and the samples were incubated on a shaker for 15 min at RT. The reaction solution was neutralized by adding 40 μL of 1M Na₂HPO₄. The samples were then stored on ice and further diluted with Diluent 100 to obtain readings in linear range. Assay protocol: Renalase levels in plasma was measured using the prototype assay on the Mesoscale platform (Meso Scale diagnostics, Gaithersburg, Md., USA) which employs proprietary electro-chemiluminescence detection methods combined with patterned arrays. Standard 96-well assay plate from Mesoscale Diagnostics were coated with 40 μL of Ren 1F 42-7 (m42-RNLS) capture antibody (2 μg/mL) and incubated for 2 hours on a shaker at room temperature. Following this, 150 μL of 3% Blocker A was added and the plate incubated on a shaker for 1 hour at room temperature. The plate was then washed with 150 μL of PBST (3 times); diluted acid activated samples and calibrator was added and the plate incubated for 2 hrs at RT on a shaker. […] The plate was washed and 2× read buffer was added and the plate imaged on SQ120 (Meso Scale Discovery). The raw data was analyzed using the Discovery Workbench software. […]

[4] = target: T3, RPC1 reference standard peptide; experiment: as above
T3 construct: Synthetic: m42 peptide antigen linked to the m28 peptide antigen
T3 sequence (peptide, as listed by the source): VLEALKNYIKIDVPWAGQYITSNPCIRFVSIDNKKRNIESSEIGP
Method: as §1

B1: anti-1D epitope monoclonal antibody 1D-28-4 (antibody, V domains shown)
VH: QSVEESGGRLVTPGTPLTLTCTVSGFSLSSFAVGWVRQAPGKGLEYIGIISSVGITRYASWAAGRFTISKTSTTVDLKITSPTTEDTATYFCARYGYSGDVNRLDLWGQGTLVTVSS
VL: AQVLTQTASPVSAAVGGTVTINCQASQSVYDNNNLAWYQQKPGQPPKQLIYGASTLASGVSSRFKGSGSGTQFTLTISGVQCDDAATYYCLGEFSCSSADCFAFGGGTEVVVKG
notes: Rabbit monoclonal from hybridoma, purified on Protein A. Used biotinylated in some assays; also called Ren 1D 28-4; Ren1D 28-4
B1: binds [1].

B2: anti-1D epitope monoclonal antibody 1D-37-10 (antibody, V domains shown)
VH: QSVEESGGRLVTPGGSLTLTCTVSGFSLSDYAIIWVRQAPGKGLEYIAIIGSSGDTFYATWAKGRFTISKTSTTVDLKMTSLTAADTATYFCAPRYAGTTDYHDAFDPWGPGTLVTVSS
VL: EVVMTQTPASMEAPMGGTVTIKCQASQNIYNYLSWYQQKPGQPPKLLVYKASTLTSGVPSRFKGSGSGTQFTLTISDLECADAATYYCQINYSIYNHYNIIFGGGTEVVVKG
notes: Rabbit monoclonal; also called Ren 1D 37-10
B2: binds [1].

B3: anti-1F epitope monoclonal antibody 1F-26-1 (antibody, V domains shown)
VH: QSVKESEGGLFKPTDTLTLTCTVSGFSLSSYGVTWVRQAPGNGLEWIGLIGDRGTTFYASWAKSRSTITRNTNLNTVTLKMTRLTAADTATYFCARGSGYGARIWGPGTLVTVSS
VL: AQVLTQTPSPVSAAVGGTVTINCQSSQSVYKNNYLAWYQQKPGQPPKLLIYETSKLASGVPPRFSGSGSGTQFTLTISSVQCDDAATYYCQGGYSGVDFMAFGGGTEVVVKG
notes: Rabbit monoclonal; Used biotinylated as detection antibody in the sandwich ELISAs; also called Ren 1F 26-1
B3: binds [2].

B4: anti-1F epitope monoclonal antibody 1F-42-7 (antibody, V domains shown)
VH: QSVKESEGGLFKPTDTLTLTCTVSGFSLTTYGVTWVRQAPGNGLEWIGLIGDRGTTYYASWVNGRSTITRNTNLNTVTLKMTRLTAADTATYFCARGSGYGARIWGPGTLVTVAS
VL: AQVLTQTPSPMSAALGGTVTINCQSSQTVYNNNYLSWYQQKPGQPPKLLIYETSKLSSGVPPRFSGSGSGTQFTLTISSVQCDDAATYYCQGGYSGVDFMAFGGGTEVVVKG
notes: Rabbit monoclonal; also called Ren 1F 42-7; m42-RNLS
B4: binds [2]; binds [3]; binds [4].
